Where no end group is shown, it is not given here.

The target of this assay is T1, AnkB_repeats site 3 mutant 'LFL' (Leu366, Phe399 and Leu432 to Gln) (human, UniProt Q01484 28-873, Leu366 substituted with Gln | Phe399 substituted with Gln | Leu432 substituted …).
T1 sequence: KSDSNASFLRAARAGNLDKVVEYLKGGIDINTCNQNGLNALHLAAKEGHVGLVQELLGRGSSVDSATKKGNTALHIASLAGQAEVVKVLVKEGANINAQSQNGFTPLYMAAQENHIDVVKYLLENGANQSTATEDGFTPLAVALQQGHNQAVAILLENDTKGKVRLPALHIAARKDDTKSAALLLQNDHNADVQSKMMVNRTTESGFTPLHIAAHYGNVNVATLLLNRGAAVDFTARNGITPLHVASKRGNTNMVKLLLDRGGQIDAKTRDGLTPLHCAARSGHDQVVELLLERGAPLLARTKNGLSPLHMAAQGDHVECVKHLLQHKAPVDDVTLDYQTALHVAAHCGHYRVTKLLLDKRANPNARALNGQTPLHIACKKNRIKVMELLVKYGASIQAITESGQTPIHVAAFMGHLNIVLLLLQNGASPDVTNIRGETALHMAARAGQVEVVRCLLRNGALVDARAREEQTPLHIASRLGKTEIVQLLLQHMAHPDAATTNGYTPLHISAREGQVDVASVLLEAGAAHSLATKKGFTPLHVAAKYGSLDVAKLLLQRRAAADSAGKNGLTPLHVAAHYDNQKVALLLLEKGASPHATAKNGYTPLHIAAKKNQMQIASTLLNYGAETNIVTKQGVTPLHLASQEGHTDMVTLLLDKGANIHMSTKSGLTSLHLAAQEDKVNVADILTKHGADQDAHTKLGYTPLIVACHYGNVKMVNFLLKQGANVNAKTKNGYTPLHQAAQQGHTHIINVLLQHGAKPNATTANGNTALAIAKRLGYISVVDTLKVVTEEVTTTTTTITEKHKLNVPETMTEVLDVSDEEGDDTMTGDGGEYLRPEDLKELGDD
As to the kind of experiment: FP.

B1: Cav1.3 peptide (mouse Cav1.3 residues 2134–2166), FITC-labeled (peptide, UniProt Q99246-4 2134-2166, looked up)
peptide: ELQDFGPGYSDEEPDPGREEEDLADEMICITTL
modifications: also: FITC label (position not given here)
notes: voltage-gated calcium channel Cav1.3, mouse, residues 2134-2166; also called voltage-gated calcium channel Cav1.3 peptide; source: synthetic peptide (commercially synthesized)
Consider B1, for which binding was characterised by a dissociation constant (Kd) of 4 µM.

Source of the values: publication PMC4358367, “Structural basis of diverse membrane target recognitions by ankyrins” (eLife, 2014).
